Measurements as given in patent US7064106B2, “Gene and use thereof” (Takeda Chemical Industries, Ltd., priority 1999, dated 2006).
Numbering of substitutions follows the chain as printed. Where no end group is shown, it is not given here.

Legend:
[1] = target: T1, binding of IRAP-His to GST-MD364N (UniProt P97629+Q9Y613); assay: Binding inhibition test / screening of compounds that inhibit the binding of IRAP to human MD36
T1 construct: to construct plasmid pET21-IRAP (1–109); made in house; host or cells: E. coli (BL21 for GST-MD36N4)
T1 sequence (Q9Y613 951-1164): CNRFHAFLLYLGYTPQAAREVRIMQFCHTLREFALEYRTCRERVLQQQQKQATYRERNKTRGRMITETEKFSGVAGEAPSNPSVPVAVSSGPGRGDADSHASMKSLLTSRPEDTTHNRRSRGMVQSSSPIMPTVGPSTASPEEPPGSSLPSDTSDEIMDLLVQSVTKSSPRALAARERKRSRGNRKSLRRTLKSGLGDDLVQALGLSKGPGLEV
T1 sequence (P97629 1-109): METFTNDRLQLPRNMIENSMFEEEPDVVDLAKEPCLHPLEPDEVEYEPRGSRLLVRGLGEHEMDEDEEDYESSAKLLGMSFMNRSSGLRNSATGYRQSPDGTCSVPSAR
Text: The C terminal part (partial peptide encoded by the partial base sequence of 2995–3674 from the 5′ end in SEQ ID NO:2) of SEQ ID NO:1 (full-length cDNA of MD36) was used as human MD36. This DNA fragment was inserted into pGEX expression vector (Amersham Pharmacia) to construct expression plasmid pGEX-MD36N4 capable of expressing the human MD36 partial protein in the form fused to GST (glutathione S-transferase) protein (GST-MD36N4 protein) under control of tac promoter. However, the protease recognition site in these junctions was removed by applying PCR. Using pGEX-MD36N4, E. coli BL21 was transformed and the transformants were cultured in LB medium in a conventional manner while inducing expression by IPTG. After culture, the cells collected were disrupted by sonication followed by centrifugation of the cell homogenate. As a result, most of the GST-MD36N4 protein were present in the insoluble fraction. […]
Protein-protein binding test was carried out by the procedure shown below. […] After the wells were again rinsed 3 times with TBS-T, the IRAP-His protein remained in the wells was quantitatively assayed using anti-Penta-His antibody (Qiagen, Inc.). […] IRAP-His (1.0 μg/ml) or anti-Penta-His antibody (diluted to 2000 fold) and both were added to the GST-MD364N-coated or uncoated wells, and after washing with TBS-T, the amount of His-Tag remained in the wells was quantified. […]

profilin I = assay: Yeast two-hybrid HIS3 growth test, MD36 and profilin family; format: cell-based; settings: S. cerevisiae Y190; 40 mM 3-amino-1,2,4-triazole
Text: (§1) The protein-protein interaction between MD36 and the profilin family was detected by the yeast two-hybrid system. Based on pGBT9 (CLONTECH), expression plasmids were constructed to express the coding regions of profiling I (Evangelista et al., Science, 276, 118–122, 1997; Imamura et al., EMBO J., 16, 2745–2755, 1997; Tanaka, Biochem. Biophys. Res. Commun., 267, 479–481, 2000), profilin II (Schluter et al., Biohim. Biophys. Acta, 1359, 97–109, 1997), and profiling IIL in the form fused to yeast GAL4-DNA-binding domain protein under control of yeast ADH1 promoter. These plasmids were named pG-PFNI, pG-PFNII and pG-PFNIII, respectively (yeast selection marker was TRP1). On the other hand, expression plasmids that express the full-length sequence (SEQ ID NO:1) of MD36, which is IRAP-BP protein, or the coding region from this N-terminus to the sequence (SEQ ID NO:33) including the proline-rich domain in the form fused to yeast […] activated domain protein under control of yeast ADH1 promoter was constructed based on pACT2 (CLONTECH), and named pACT-MD36 and pACT-MD36NT, respectively (yeast selection marker was LEU2). pG-PFNI, pG-PFNII, pG-PFNIII or, pGBT9 for control was co-transfected to yeast Saccharomyces cerevisiae Y190 together with pACT-MD36 or pACT-MD36NT, and yeast strains bearing plasmids from the two were selected on SD medium free of tryptophan and leucine. S. cerevisiae Y190 is originally a histidine auxotrophic strain but when the introduced proteins on the plasmids show the interactions, reporter gene HIS3 is expressed and the strain becomes capable of growing on a histidine-free plate. The yeast strain acquired was spread on tryptophan, leucine and histidine-free SD medium supplemented with 40 mM 3-amino-1,2,4-triazole.

profilin II = target: T2, profilin II (Homo sapiens, UniProt P35080); assay: as above; format: cell-based; settings: S. cerevisiae Y190; 40 mM 3-amino-1,2,4-triazole
T2 construct: expressed in transfected cells; host or cells: Saccharomyces cerevisiae Y190
T2 sequence (P35080 1-140 isoform P35080-2): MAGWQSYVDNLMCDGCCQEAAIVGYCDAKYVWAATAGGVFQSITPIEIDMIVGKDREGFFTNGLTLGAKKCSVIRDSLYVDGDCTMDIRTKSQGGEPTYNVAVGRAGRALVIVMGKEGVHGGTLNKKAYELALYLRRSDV
Text: as §1

profilin IIL = target: T3, profilin IIL (Homo sapiens, UniProt P35080); assay: as above; format: cell-based; settings: S. cerevisiae Y190; 40 mM 3-amino-1,2,4-triazole
T3 construct: expressed in transfected cells; host or cells: Saccharomyces cerevisiae Y190
T3 sequence (P35080 1-140): T2 sequence (P35080 1-140 isoform P35080-2) with A109V, I112F, T123G, E130S, L131M, L133K, R137D, D139G, V140F
Description: Using as a template human skeletal muscle-derived cDNA and as an enzyme Pfu polymerase (STRATAGENE), the reaction was carried out at 95° C. for 30 seconds, at 65° C. for 45 seconds and at 72° C. for 60 seconds, for 35 cycles. As a result of PCR, the DNA fragment of 745 bp was found, in addition to the DNA fragment of 423 bp or profilin II, and named profilin IIL. The base sequence for cDNA of profilin IIL is shown by SEQ ID NO:29, and the amino acid sequence of profilin II is shown by SEQ ID NO:28.
The protein-protein interaction between MD36 and the profilin family was detected by the yeast two-hybrid system. Based on pGBT9 (CLONTECH), expression plasmids were constructed to express the coding regions of profiling I (Evangelista et al., Science, 276, 118–122, 1997; Imamura et al., EMBO J., 16, 2745–2755, 1997; Tanaka, Biochem. Biophys. Res. Commun., 267, 479–481, 2000), profilin II (Schluter et al., Biohim. Biophys. Acta, 1359, 97–109, 1997), and profiling IIL in the form fused to yeast GAL4-DNA-binding domain protein under control of yeast ADH1 promoter. These plasmids were named pG-PFNI, pG-PFNII and pG-PFNIII, respectively (yeast selection marker was TRP1). […]

O=C(O)c1cc(O)c2c(c1)[C@@H]([C@H]1c3cc(C(=O)O)cc(O)c3C(=O)c3c(OC4OC(CO)C(O)C(O)C4O)cccc31)c1cccc(OC3OC(CO)C(O)C(O)C3O)c1C2=O (some centres unmarked) [Compound 1]
binding inhibition (reduced amount of His-Tag remained on the plate) ([1]; library compound in DMSO, final concentration 1 μM): exhibited binding inhibition

IRAP (55–82): chemically synthesized biotinylated peptide, amino acids 55–82 from the N terminus of SEQ ID NO:11 (IRAP) (VRGLGEHEMDEDEEDYESSAKLLGMSFM; also: biotinylated; listed as Homo sapiens) [reference compound]
inhibition of the binding of IRAP-His to GST-MD364N ([1]; biotinylated IRAP (55–82) peptide added, several amounts (μg/well)): inhibited

B1: MD36NT: MD36 from the N terminus to the sequence including the proline-rich domain (SEQ ID NO:33) (protein, listed as Homo sapiens)
chain: MAGGEDRGDGEPVSVVTVRVQYLEDTDPFACANFPEPRRAPTCSLDGALPLGAQIPAVHRLLGAPLKLEDCALQVSPSGYYLDTELSLEEQREMLEGFYEEISKGRKPTLILRTQLSVRVNAILEKLYSSSGPELRRSLFSLKQIFQEDKDLVPEFVHSEGLSCLIRVGAAADHNYQSYILRALGQLMLFVDGMLGVVAHSDTIQWLYTLCASLSRLVVKTALKLLLVFVEYSENNAPLFIRAVNSVASTTGAPPWANLVSILEEKNGADPELLVYTVTLINKTLAALPDQDSFYDVTDALEQQGMEALVQRHLGTAGTDVDLRTQLVLYENALKLEDGDIEEAPGAGGRRERRKPSSEEGKRSRRSLEGGGCPARAPEPGPTGPASPVGPTSSTGPALLTGPASSPVGPPSGLQASVNLFPTISVAPSADTSSERSIYKLHQTASVWAPESPPVPQSPPGQARLEARFLENVAAAETEKQVALAQGRAETLAGAMPNEAGGHPDARQLWDSPETAPAARTPQSPAPCVLLRAQRSLAPEPKEPLIPASPKAEPIWELPTRAPRLSIGDLDFSDLGEDEDQDMLNVESVEAGKDIPAPSPPLPLLSGVPPPPPLPPPPPIKGPFPPPPPLPLAAPLPHSVPDSSALPTKRKTVKLFWRELKLAGGH
growth of yeast on tryptophan, leucine and histidine-free SD medium (profilin I): did not grow
growth of yeast on tryptophan, leucine and histidine-free SD medium (profilin II): did not grow
growth of yeast on tryptophan, leucine and histidine-free SD medium (profilin IIL): Growth of the yeast was noted
